Experimental data: paper PMC11838735, “Structural basis of collagen glucosyltransferase function and its serendipitous role in kojibiose synthesis” (Research Square, 2025)

B1: mimiviral collagen glucosyltransferase R699, wild type (pET28 construct) (enzyme)
chain: EQSNNDDNLLVLGIGISVHKTDGVLRFEKYCQAHNLQYMIVGEGKKWNGGNLESEAGGGQKINELLIALESIKDNKLIVVCDTYDLIPLSGPEEILRKYRFLTPDNKVVFSSELYCWPDASLVERYPKVDTKYKYLNSGAFMGYRDDIYEMIKNGVKDRDDDQLFFSIKFIETDKIVLDYKCELFQAMYRCNSDLVVHKNRIFNGYTNSYPVFAHGNGPAKKLLNHMEGYFMTEPIDGSSNTINTFKLDNEPKVFFALYVDSNDLSALKQFLGKVASIQYGNKVIYLYDRSDNEQNRKLIQISYPNYHTGVTKYVFDDFKKSDAQFYFLLEQNCIITKKDILHELIMQVKDNHRVISPMIGYEQNSTRTNFWGDIEDGYYKRSENYLDLAKHKVRGLWNVPYVYGVILMHESVVRNWDLSMVKYNDKDMDLCFSLRKHTIFMYMINNNNYGYMV
notes: R699 protein of Acanthamoeba polyphaga mimivirus, collagen galactosylhydroxylysyl glucosyltransferase; gene synthesized by Genscript; The vector has a PreScission site in place of the thrombin site, and no cleavage is described for this construct; also called R699WT; mimiviral R699

Columns and labels:
[1] = biological target: human PLOD2b GLT-AC truncation (PLOD2b-GA) (human); assay: SEC-MALS; the paper calls it SEC-DLS (size exclusion chromatography with dynamic light scattering); Superdex 200 10/300, miniDAWN TREOS and Optilab T-rEX detectors, 20 mM Tris pH 8, 200 mM NaCl, 3 mg ml^-1, 150 μl injected, 0.5 ml min^-1; molar mass across the peak; each protein analyzed once
[2] = biological target: the molecule itself; assay: as above

Row | Molecule | stoichiometry N [1] | stoichiometry N [2]
1 | human PLOD2b GLT-AC truncation (PLOD2b-GA) (domain or fragment) | 2 | –
2 | B1 | – | 2
